Assay results as given in article PMC11115230, “Mitotic deacetylase complex (MiDAC) recognizes the HIV-1 core promoter to control activated viral gene expression”.

Key:
[1] = molecular target: T1, DNTTIP1 (TdIF1), His-tagged (human, UniProt Q9H147 1-329); test: fluorescence anisotropy; Hill n 1.78; error = fit SE x15; Anisotropy: 15 nM DNA, 10 mM Na-PO4 pH 6.5, 150 mM KCl, 250 uM TCEP, 5% glycerol. Pull-down: 20 mM HEPES pH 7.9, 100 mM KCl, 10% glycerol, 0.05% CHAPS, poly(dIdC), oligo B, acetylated BSA, room temperature; conditions: protein: recombinant; tags: N-term 6xHis; chain copies: 2; label: fluorescein on first T of sense strand; blunt
T1 sequence: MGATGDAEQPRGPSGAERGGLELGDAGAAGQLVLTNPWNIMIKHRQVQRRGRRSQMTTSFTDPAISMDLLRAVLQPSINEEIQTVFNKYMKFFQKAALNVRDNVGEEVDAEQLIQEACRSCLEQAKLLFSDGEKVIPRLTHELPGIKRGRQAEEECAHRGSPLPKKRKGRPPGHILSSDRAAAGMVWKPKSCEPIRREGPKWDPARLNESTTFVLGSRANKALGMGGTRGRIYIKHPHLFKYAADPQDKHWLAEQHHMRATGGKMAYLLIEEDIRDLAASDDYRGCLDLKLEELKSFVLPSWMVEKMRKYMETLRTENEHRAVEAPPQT

[2] = molecular target: T1, DNTTIP1 (TdIF1), His-tagged; test: fluorescence anisotropy; Hill n 2.39; error = fit SE x15; Anisotropy: 15 nM DNA, 10 mM Na-PO4 pH 6.5, 150 mM KCl, 250 uM TCEP, 5% glycerol. Pull-down: 20 mM HEPES pH 7.9, 100 mM KCl, 10% glycerol, 0.05% CHAPS, poly(dIdC), oligo B, acetylated BSA, room temperature; conditions: protein: recombinant; tags: N-term 6xHis; chain copies: 2; label: fluorescein on first T of sense strand; blunt
[3] = molecular target: T1, DNTTIP1 (TdIF1), His-tagged; test: fluorescence anisotropy; Hill n 1.63; error = fit SE x15; Anisotropy: 15 nM DNA, 10 mM Na-PO4 pH 6.5, 150 mM KCl, 250 uM TCEP, 5% glycerol. Pull-down: 20 mM HEPES pH 7.9, 100 mM KCl, 10% glycerol, 0.05% CHAPS, poly(dIdC), oligo B, acetylated BSA, room temperature; conditions: protein: recombinant; tags: N-term 6xHis; chain copies: 2; label: fluorescein on first T of sense strand (anisotropy only); blunt
[4] = molecular target: T1, DNTTIP1 (TdIF1), His-tagged; test: equimolar DNA; Tm 39.2 C; unit inferred, M assumed; Anisotropy: 15 nM DNA, 10 mM Na-PO4 pH 6.5, 150 mM KCl, 250 uM TCEP, 5% glycerol. Pull-down: 20 mM HEPES pH 7.9, 100 mM KCl, 10% glycerol, 0.05% CHAPS, poly(dIdC), oligo B, acetylated BSA, room temperature; conditions: protein: recombinant; tags: N-term 6xHis; chain copies: 2; label: fluorescein on first T of sense strand (anisotropy only); blunt
[5] = molecular target: T1, DNTTIP1 (TdIF1), His-tagged; test: equimolar DNA; Tm 32.7 to 43.5 C; unit inferred, M assumed; Anisotropy: 15 nM DNA, 10 mM Na-PO4 pH 6.5, 150 mM KCl, 250 uM TCEP, 5% glycerol. Pull-down: 20 mM HEPES pH 7.9, 100 mM KCl, 10% glycerol, 0.05% CHAPS, poly(dIdC), oligo B, acetylated BSA, room temperature; conditions: protein: recombinant; tags: N-term 6xHis; chain copies: 2; label: fluorescein on first T of sense strand (anisotropy only); blunt
[6] = molecular target: T1, DNTTIP1 (TdIF1), His-tagged; test: fluorescence anisotropy; Hill n 1.89; error = fit SE x15; Anisotropy: 15 nM DNA, 10 mM Na-PO4 pH 6.5, 150 mM KCl, 250 uM TCEP, 5% glycerol. Pull-down: 20 mM HEPES pH 7.9, 100 mM KCl, 10% glycerol, 0.05% CHAPS, poly(dIdC), oligo B, acetylated BSA, room temperature; conditions: protein: recombinant; tags: N-term 6xHis; chain copies: 2; label: fluorescein on first T of sense strand (anisotropy only); blunt
[7] = molecular target: T1, DNTTIP1 (TdIF1), His-tagged; test: CD thermal denaturation; equimolar DNA; unit inferred, M assumed; Anisotropy: 15 nM DNA, 10 mM Na-PO4 pH 6.5, 150 mM KCl, 250 uM TCEP, 5% glycerol. Pull-down: 20 mM HEPES pH 7.9, 100 mM KCl, 10% glycerol, 0.05% CHAPS, poly(dIdC), oligo B, acetylated BSA, room temperature; conditions: protein: recombinant; tags: N-term 6xHis; chain copies: 2; blunt

B1: Scr_25 (dsDNA)
DNA 1: AGATCAGCAGAGCTCTGGTAGCTAT
DNA 2: ATAGCTACCAGAGCTCTGCTGATCT
**Q.** How did the Kd [1] turn out when B1 was run?
**A.** 156 ± 15.6 nM

B2: CATAKO_25 (dsDNA)
DNA 1: AGATGCTGAGAGCTCGCAGCTGCTT
DNA 2: AAGCAGCTGCGAGCTCTCAGCATCT
**Q.** For B2, which Kd [2] is on record?
**A.** 117 ± 15.6 nM

B3: ATCC_25 (dsDNA)
DNA 1: AGATGATCCATATAAGGATATCCTT
DNA 2: AAGGATATCCTTATATGGATCATCT
**Q.** Which Kd [3] does the source give for B3 here?
**A.** 137 ± 16.6 nM

**Q.** And the Kd [4]?
**A.** ~791 nM

B4: TASHET_25 wt (dsDNA)
DNA 1: AGATGCTGCATATAAGCAGCTGCTT
DNA 2: AAGCAGCTGCTTATATGCAGCATCT
**Q.** How did the Kd [5] turn out when B4 was run?
**A.** ~0.392 nM

**Q.** And the Kd [6]?
**A.** 51.1 ± 4.2 nM

B5: DNTTIP_cons (dsDNA)
DNA 1: CGCCAAATAAAAGTTGCATGGTCG
DNA 2: CGACCATGCAACTTTTATTTGGCG
**Q.** B5 was tested. Which Kd [7] did it give?
**A.** ~7.38 nM
